Results published in the PETadex activity labels (doi:10.1016/s0014-5793(99)00813-3).

What follows are proteins tested on p-NP-C4. Details: pH 7.1; 25 °C.

Row | Protein | Km | kcat | kcat/Km
1 | unnamed (protein) MKPENKLPVLDLISAEMKTVVNTLQPDLPPWPATGTIAEQRQYYTLERRFWNAGAPEMATRAYMVPTKYGQVETRLFCPQPDSPATLFYLHGGGFILGNLDTHDRIMRLLASYSQCTVIGIDYTLSPEARFPQAIEEIVAACCYFHQQAEDYQINMSRIGFAGDSAGAMLALASALWLRDKQIDCGKVAGVLLWYGLYGLRDSVTRRLLGGVWDGLTQQDLQMYEEAYLSNDADRESPYYCLFNNDLTREVPPCFIAGAEFDPLLDDSRLLYQTLAAHQQPCEFKLYPGTLHAFLHYSRMMKTADEALRDGAQFFTAQL | 500 µM | 30.9 s⁻¹ | 61800 M⁻¹ s⁻¹
2 | unnamed (protein) MKPENKLPVLDLISAEMKTVVNTLQPDLPPWPATGTIAEQRQYYTLERRFWNAGAPEMATRAYMVPTKYGQVETRLFCPQPDSPATLFYLHGGGFILGNLDTNDRIMRLLASYSQCTVIGIDYTLSPEARFPQAIEEIVAACCYFHQQAEDYQINMSRIGFAGDSAGAMLALASALWLRDKQIDCGKVAGVLLWYGLYGLRDSVTRRLLGGVWDGLTQQDLQMYEEAYLSNDADRESPYYCLFNNDLTREVPPCFIAGAEFDPLLDDSRLLYQTLAAHQQPCEFKLYPGTLHAFLHYSRMMKTADEALRDGAQFFTAQL | 250 µM | 12.1 s⁻¹ | 48400 M⁻¹ s⁻¹
3 | unnamed (protein) MKPENKLPVLDLISAEMKTVVNTLQPDLPPWPATGTIAEQRQYYTLERRFWNAGAPEMATRAYMVPTKYGQVETRLFCPQPDSPATLFYLHGGGFILGNLDTHDRIMRLLASYSQCTVIGIDYTLSPEARFPQAIEEIVAACCYFHQQAEDYQINMSRIGFAGDSAGAMLALASALWLRDKQIDCGKVAGVLLWYGLYGLRDSVTRRLLGGVWDGLTQQDLQMYEEAYLSNDADRESPYYCLFNNDLTREVPPCFIAGAEFDPLLADSRLLYQTLAAHQQPCEFKLYPGTLHAFLHYSRMMKTADEALRDGAQFFTAQL | 500 µM | 3.4 s⁻¹ | 6800 M⁻¹ s⁻¹
4 | unnamed (protein) MKPENKLPVLDLISAEMKTVVNTLQPDLPPWPATGTIAEQRQYYTLERRFWNAGAPEMATRAYMVPTKYGQVETRLFCPQPDSPATLFYLHGGGFILGNLDTHDRIMRLLASYSQCTVIGIDYTLSPEARFPQAIEEIVAACCYFHQQAEDYQINMSRIGFAGDSAGAMLALASALWLRDKQIDCGKVAGVLLWYGLYGLRDSVTRRLLGGVWDGLTQQDLQMYEEAYLSNDADRESPYYCLFNNDLTREVPPCFIAGAEFAPLLDDSRLLYQTLAAHQQPCEFKLYPGTLHAFLHYSRMMKTADEALRDGAQFFTAQL | 400 µM | 0.034 s⁻¹ | 85 M⁻¹ s⁻¹
5 | unnamed (protein) MKPENKLPVLDLISAEMKTVVNTLQPDLPPWPATGTIAEQRQYYTLERRFWNAGAPEMATRAYMVPTKYGQVETRLFCPQPDSPATLFYLHGGGFILGNLDTHDRIMRLLASYSQCTVIGIDYTLSPEARFPQAIEEIVAACCYFHQQAEDYQINMSRIGFAADSAGAMLALASALWLRDKQIDCGKVAGVLLWYGLYGLRDSVTRRLLGGVWDGLTQQDLQMYEEAYLSNDADRESPYYCLFNNDLTREVPPCFIAGAEFDPLLDDSRLLYQTLAAHQQPCEFKLYPGTLHAFLHYSRMMKTADEALRDGAQFFTAQL | 500 µM | 2.9 s⁻¹ | 5800 M⁻¹ s⁻¹
6 | unnamed (protein) MKPENKLPVLDLISAEMKTVVNTLQPDLPPWPATGTIAEQRQYYTLERRFWNAGAPEMATRAYMVPTKYGQVETRLFCPQPDSPATLFYLHGGGFILGNLDTHDRIMRLLASYSQCTVIGIDYTLSPEARFPQAIEEIVAACCYFHQQAEDYQINMSRIGFAGASAGAMLALASALWLRDKQIDCGKVAGVLLWYGLYGLRDSVTRRLLGGVWDGLTQQDLQMYEEAYLSNDADRESPYYCLFNNDLTREVPPCFIAGAEFDPLLDDSRLLYQTLAAHQQPCEFKLYPGTLHAFLHYSRMMKTADEALRDGAQFFTAQL | 1000 µM | 0.007 s⁻¹ | 7 M⁻¹ s⁻¹
7 | unnamed (protein) MKPENKLPVLDLISAEMKTVVNTLQPDLPPWPATGTIAEQRQYYTLERRFWNAGAPEMATRAYMVPTKYGQVETRLFCPQPDSPATLFYLHGGGFILGNLDTHDRIMRLLASYSQCTVIGIDYTLSPQARFPQAIEEIVAACCYFHQQAEDYQINMSRIGFAGDSAGAMLALASALWLRDKQIDCGKVAGVLLWYGLYGLRDSVTRRLLGGVWDGLTQQDLQMYEEAYLSNDADRESPYYCLFNNDLTREVPPCFIAGAEFDPLLDDSRLLYQTLAAHQQPCEFKLYPGTLHAFLHYSRMMKTADEALRDGAQFFTAQL | 350 µM | 7.4 s⁻¹ | 21100 M⁻¹ s⁻¹
8 | unnamed (protein) MKPENKLPVLDLISAEMKTVVNTLQPDLPPWPATGTIAEQRQYYTLERRFWNAGAPEMATRAYMVPTKYGQVETRLFCPQPDSPATLFYLHGGGFILGNLDTHDRIMRLLASYSQCTVIGIDYTLSPEARFPQAIEEIVAACCYFHQQAEDYQINMSRIGFAGDSAAAMLALASALWLRDKQIDCGKVAGVLLWYGLYGLRDSVTRRLLGGVWDGLTQQDLQMYEEAYLSNDADRESPYYCLFNNDLTREVPPCFIAGAEFDPLLDDSRLLYQTLAAHQQPCEFKLYPGTLHAFLHYSRMMKTADEALRDGAQFFTAQL | 2000 µM | 49.4 s⁻¹ | 24700 M⁻¹ s⁻¹
